Measurements: the RNAGym collection of RNA variant scans (doi:10.1073/pnas.2313332121)

B1: TPR t1 (parent)
chain: GACCAAUCUGCCCUCAGAGCUCGAGAACAUCUUCGGAUGCAGAGGAGGCAGGCUUCGGUGGCGCGAUAGCGCCAACGUCCUCAACCUCCAAUGCAUCCCACCACAUGAUGAUGCCUGAAGAGCCUUGGUUUUUUG

Variants of: B1
Test: polymerase ribozyme fitness, log enrichment relative to wild type (log ratio); higher = more active; in vitro selection for triplet polymerase activity
Method in brief: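 In triplicate, a single round of in vitro selection was run on each mutant library, PCR-built and transcribed, covering one subunit of a heterodimeric triplet polymerase ribozyme. Frozen incubation at −7 °C followed annealing with a biotinylated primer, partner subunit and triplets, and extended constructs were then gel-excised, streptavidin-captured and taken through RT-PCR. Fitness is the logarithm of genotype enrichment over wild-type enrichment, from inverse-variance-weighted replicate averages of Illumina-sequenced inputs and outputs. […] only genotypes with ≥10 input reads and ≥1 read per output were kept.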

Variant	polymerase ribozyme fitness (log ratio)
C15A A46C A84C A91U	-4.15
C13U C123U	1.41
C13U A108G G120A	-1.12
C15A G52A G61U C88A A95C U112C C124U	-1.64
U14C G42U G44A G61U	-2.82
C15G G63A	-3.35
C15G G63U	-3.98
C15G U55C A75G	-3.14
C13U U96A	-1.11
U14A A46C U112A A119G G122C	-0.328
C13U G52C C94G A100U G113A	-2.95
C13U G135U	-0.441
C15G U32C C49U U87G C123A	-3.12
C15A C82A	-3.12
C15G A84U G120U U129G	-5.84
C13U G35A G48A U59C C86U G120U	-5.19
C15G C70U	-3.1
U14A U125A	-2.3
U14A U125G	-3.25
C15A G48C	-3.05
C15G G71U C72U A95U	-4.5
C13U A83C U112C	1.79
C13U G60C	-0.502
C13U C98A C115U	-5.17

Variant	polymerase ribozyme fitness (log ratio)
U14A U116A A121G	0.0546
U14A A46C G69A C101U G110U U126A	-6.24
C13U A74U G93C G113A	-1.26
U14C U78A C80A	-4.98
U14A A37U G93U U132A	-4.47
C13U C40U A43G G52U G58C A91C	-2.35
C15A A37G C79G	-3.88
C13U G63A C64U	-4.34
C15G C62U	-1.91
C15U A16U G42C G61A C89A	-1.37
U14G C73U	-1.04
C13U U55G C79U	0.324
C13U A43C A50U C73U C86U U96G A108U G117U	-6.8
U14C U33C	-5.43
C13U C124U	1.96
C15A A46C G52U C56U C115G	-6.86
C13U C15G A50G G61A	-1.6
C15A G61C	-4.23
C15A G61A	-2.09
C13U U21C C80U A90U	-1.82
C13U C104A	-1.47
C13U C15G G57U G93A G117A	-1.62
C13U G39A A68C A91G C123A	-7.34
C15G G60C U130C	-1.49

Variant	polymerase ribozyme fitness (log ratio)
C15A C20A A118U	-3.93
U14A C70A	-4.09
C15A G47U C115A A121C U133C	-3.65
C15G G120C	-0.975
C13U U55A G61C A84U C85G A95G U125G G128U	-3.92
C15A C22A U96A C124U	-5.05
C13U C34U A111C C124U	-5.41
C13U C28G C53G U78G C88A U106A G110A A111G	-1.49
U14A G63C	-2.57
C15A G120A	0.181
C15G G39U G48A A68U U112G	-7.39
C15U A29U A37U C62G C124G G135C	-2.45
C15G A37U A66G C123A	-3.27
C15A G63U C72U U129G U131C	-4.85
U14A G48A C56U G117U	-5.41
C13U C82G A90U C104A	-5.14
C13U C34A U54A U78C U112A G122C	-3.05
C15A C20A G107A A121G	-5.21
C15G A16U C72U U109A C115U	-6.16
U14G C20G G44U G117C	-6.5
C15U A37U C62U	-1.85
C15U A41U	-2.32
C13U C56G	0.205
U14C A37C	-2.09

Variant	polymerase ribozyme fitness (log ratio)
C13U A37U C64G G93C A105U G110U U129G	-7.07
C13U G35A C86G	-3.98
C15A A41U	-3.45
C13U A29C G61U	-2.08
C13U G61C	-1.59
U14A C53G C70U C72G	-4.88
U14A A18U C73A G77C A119U	-3.61
C15A G52U U55G	-1.52
C13U U59C C70G	-4.01
U14G C79G	-3.52
C15A U32C G71C	-2.71
C13U G93A C114G	-2.39
U14A G45A G110U U112C	-4.2
C15A G44A G45U G48U C62U C73U U78G	-5.47
C15A G63A	-2.56
U14A A41C	-4.27
C15G C56U U87A C115U U131C	-0.823
C13U C22A A26C C56G G122A	-4.98
U14G G47U C101G G120U	-4.67
C15A C82G G117C G120C	-5.78
C13U G44A A50C G63A C85A	-3.07
U14A A50C U125G	-3.97
U14C U55C G117U U133G	-5.59
U14A C70U C104U	-2.52

Variant	polymerase ribozyme fitness (log ratio)
C15A U109G G113A U131A	-5.16
U14A U54A C56U U130G	-3.42
C15G G42A C88G	-4.44
C15A A41U G60C U133A	-3.25
C13U C73U	-0.351
C15G C101U	-2.56
C15G C101A	-3.78
C15A A46U G117U C124U U132C	-0.364
C13U G60C C82U U96G	-1.02
C13U C82U A83G A118U	-1.83
C15A C20A G71U A118U	-4.11
C13U G39U G61C	-1.9
C15G A83U C115G C123A	-5.38
U14A A29G G113A	-5.5
C15A G19A A50C A74G C102A C104A A121U U125G	-6.51
U14G G69C	-3.2
U14A U32C U87A C101A	-3.54
C15G C34A	-5.11
U14G A46G G71C G120A	-0.69
C13U C56G U59G A95C	-2.3
C15A C88U	-2.17
C13U C72G C85G C123U	-0.494
U14A G36U C40G C56A A84G C97A	-7.86
C15U A50U C76U U78A	-3.61

Variant	polymerase ribozyme fitness (log ratio)
U14G U129G	-3.21
C13U C70A	-0.46
C13U U55A C88U	-0.31
C15G C114U	-4.3
U14C C20A C114U G128U	-5.92
C13U C40G G42A C79A	-4.76
U14A G61U U81A C97U	-3.36
C13U C76A	-0.633
C15A C49G	-2.46
U14C A18U G48U G71A	-6.1
C15U A37G G71A C80U A118U U133A	-4.3
U14G G39A C85U G117A	-3.84
C15G G47U A83U A108U C114G U116G G117C	-6.68
U14G G69A A90C U112A G128A	-6.5
U14G G120U	-1.14
U14G C56U C70A	-5.19
U14C G47C	-2.99
U14G G60A G117U	-5.67
C13U U21A A27G G61C C99U	-6.29
U14C G45A G122A	-3.73
C15G C98G G120A C123A C124A	-6.86
C15U A41C G48A C53U C56U C124U	-1.63
C15A A46C G63A G113C C114U	-6.03
U14G G71A G120C	-0.108

Variant	polymerase ribozyme fitness (log ratio)
C15A C56A	-0.645
C15A C56U	-1.71
C15A A37U G39A G42U A90U	-3.14
C13U C40A	-0.359
C13U C40U	-0.246
U14G G36C	-3.92
U14A C22A C101A U116G C124U	-5.17
U14A G52C C102U U106C C124G	-1.75
C13U C15A G63C	-4.06
C13U A37U C64U U92A U126C	-3.51
C13U G35U	-3.47
U14G G48U G60U	-2.56
C13U G45U G60C C82U	-0.444
C13U C34A G71C A121U	-2.27
C15A G47U G61U G110A	-3.43
C13U A121C	1.84
C15U A16U G58C C72U C80A A111C	-6.92
U14A C79U G117U	-5.29
C13U G47C C73A C99U	-4.72
C15A A29G C72A U81A U87C G120C	-2.96
C15A G39C	-3.41
C15A G39A	-2.28
C13U G36A C88U	-0.556
